Measured values as given in patent US20110300156A1 (Genmab, published 2011).

T1: murine tissue factor (TF) on transfected HEK293F cells (murine, UniProt P20352 29-294)
T1 construct: whole, on cells; also called murine TF; TFmm
T1 sequence (looked up): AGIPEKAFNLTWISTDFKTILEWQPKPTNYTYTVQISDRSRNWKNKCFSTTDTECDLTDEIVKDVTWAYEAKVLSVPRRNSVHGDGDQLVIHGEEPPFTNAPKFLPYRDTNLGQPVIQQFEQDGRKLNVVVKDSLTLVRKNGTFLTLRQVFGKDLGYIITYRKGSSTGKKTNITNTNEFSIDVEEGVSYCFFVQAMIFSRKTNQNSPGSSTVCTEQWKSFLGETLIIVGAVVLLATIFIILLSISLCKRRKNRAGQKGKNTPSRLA


Key:
[1] = target: T1, murine tissue factor (TF) on …; assay: FACS on transfected HEK293F cells, 30 µg/mL antibody [Figure 18; no figure label on the sheet]
Description: (§1) Cells were resuspended in PBS (2×10⁶ cells/ml), put in 96-well V-bottom plates (50 μl/well). 50 μl of serially diluted HuMab in FACS buffer (PBS supplemented with 0.1% BSA and 0.02% Na-azide) was added to the cells and incubated for 30 minutes on ice. After washing three times with FACS buffer, 50 μl of phycoerythrin (PE)-conjugated goat anti-human IgGFc (Jackson ImmunoResearch), diluted 1:100 in FACS buffer, was added. After 30 minutes on ice (in the dark), cells were washed three times, and specific binding of the HuMabs was detected by flow cytometry on a FACSCalibur (BD Biosciences). HuMab-KLH was used as a negative control. Mouse anti-TF followed by PE-conjugated anti-mouse IgGFc was used as positive control. Binding curves were analyzed using non-linear regression (sigmoidal dose-response with variable slope) using GraphPad Prism V4.03 software (GraphPad Software, San Diego, Calif., USA).
To determine domains important for binding of anti-TF HuMabs to human TF, DNA shuffling was performed between human and murine TF. Shuffle constructs were prepared from DNA encoding human TF, by replacing human domains with murine domains and from DNA encoding murine TF by replacing murine domains with human domains.

[2] = target: T2, TFECDHis (extracellular domain of tissue factor, amino acid 1-251, with C-terminal His tag) (human, UniProt P13726 33-251); assay: SPR BIAcore 3000, HuMab immobilized, TFECDHis analyte
T2 construct: range 1-251; The stated range 1-251 starts at residue 1 of NP-001984; also called extracellular domain of TF
Method in brief: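 HuMab antibodies (500 RU) amine-coupled on a CM-5 chip; TFECDHis concentration series in HBS-EP run over them at 30 μl/min for 180 sec. Surface regenerated with glycine pH 2.0 or acetate pH 3.0; kinetics from double-referenced 1:1 Langmuir fitting.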

[3] = target: T3, human tissue factor (TF), membrane-bound on cells (human, UniProt P13726 33-295); assay: FACS on AsPC-1 cells (~175.000 TF molecules/cell) [panel AsPC-1 cells]
T3 construct: whole, on cells; also called cellular TF
Description: as §1
(§2) Binding of anti-TF HuMabs to membrane-bound TF on cell lines expressing different levels of TF was determined by FACS analysis, essentially as described supra. Mouse anti-TF antibody followed by PE-conjugated anti-mouse IgGFc was used as a positive control. Fluorescence was measured on a FACSCantoII. Binding curves were analyzed essentially as described supra, using GraphPad Prism 5 software. The amount of TF molecules on cell lines was determined by Qifi kit (Dako, Glostrup, Denmark), according to the manufacturer's instructions.

[4] = target: T2, TFECDHis (extracellular domain of …); assay: SPR avidity format: TFECDHis immobilized, bivalent HuMab as analyte (printed as avidity nM)
Description: Antibody binding to TF was analyzed by surface plasmon resonance in a BIAcore 3000 (GE Healthcare). TFECDHis was used for the analysis. HuMab antibodies (500 resonance units) were immobilized on the CM-5 sensor chip according to the procedure recommended by the manufacturer. Briefly, after surface activation by EDC and NHS HuMab antibody was injected over the activated CM-5 surface in 10 mM sodium-acetate, pH ranging from 4.0 to 5.5 at 5 μl/min. followed by 1 M Ethanolamine for deactivation. Concentration series of TFECDHis in HBS-EP buffer were injected over the immobilized antibodies at a flow rate of 30 μl/min for 180 sec. Regeneration of the HuMab surface was performed by injection of 10 mM Glycine-HCl pH 2.0 or 10 mM sodium acetate pH 3.0. Kinetic analysis was performed using double reference subtraction and model 1:1 (langmuir) binding analysis.
TF (TFECDHis) binding to TF-specific HuMabs was determined essentially as described above, with TFECDHis being immobilized on the CM-5 sensor chip (300 resonance units), and concentration series of Humab antibodies used for kinetic analysis. Kinetic analysis was performed using double reference subtraction and model 1:1 (langmuir) binding analysis.

[5] = target: T3, human tissue factor (TF), …; assay: FACS on SK-OV-3 cells (~60.000 TF molecules/cell) [panel SK-OV-3 cells]
Description: as §1
as §2, with “Mouse anti-TF antibody followed by PE-conjugated anti-mouse IgGFc was used as a positive control.” left out

[6] = target: T1, murine tissue factor (TF) on …; assay: FACS on transfected HEK293F cells, 30 µg/mL antibody [panel M]

binding result [1]	Kd [2] [nM]	EC50 (read off the curve) [3] [µg/mL]	Kd [4] [nM]	EC50 (read off the curve) [5] [µg/mL]	binding result [6]	Binder
no binding (tested: 30 µg/mL)	2.78					anti-TF HuMab 013 (antibody, V domains shown, Human monoclonal antibody from HuMab mice; also called HuMab-TF-13) VH: EVQLVQSGAEVKKPGESLKISCKGSGYSFTSYWIGWVRQMPGKGLEWMGIIYPGDSDTRYSPSFQGQVTISADKSISTAYLQWSSLKASDTAMYYCARIHRGAGYSSSWPGAFDIWGQGTMVTVSS VL: DIQMTQSPSSLSASVGDRVTITCRASQGISRWLAWYQQKPEKAPKSLIYAASSLQSGVPSRFSGSGSGTDFTLTISSLQPEDFATYYCQQYDSDPITFGQGTRLEIK
	4.75	~0.1	0.01	~0.04	no binding (tested: 30 µg/mL)	anti-TF HuMab 109 (antibody, V domains shown, Human monoclonal antibody from HuMab mice) VH: QVQLVESGGGVVQPGRSLRLSCPASGFTFSIYAMHWVRQAPGKGLEWVAVVSNDGYNKYYADSVKGRFTISRDNSKDTLYLQMNSLRAEDTAVYYCARDGQLGRGYFDYWGQGTLVTVSS VL: EIVLTQSPATLSLSPGERAILSCRASQSVSSYLAWYQQKPGQAPRLLIYDASNRATGIPARFSGSGSGTDFTLTISSLEPEDFAVYYCQQRSNWPLTFGGGTKVEIK
